# Positions count from the first letter of the chain named.
# T1: canine IL-13 (canine, UniProt Q9N0W9 19-131, limits assumed, biotin-labeled in the Octet assay (site not stated))
# T1 sequence (looked up): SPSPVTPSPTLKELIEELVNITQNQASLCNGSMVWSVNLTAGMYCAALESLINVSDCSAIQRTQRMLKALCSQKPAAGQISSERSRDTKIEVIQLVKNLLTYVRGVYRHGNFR
# T2: canine IL-13 (cIL-13) (Canis lupus familiaris, UniProt Q9N0W9)
# T2 sequence (Q9N0W9 19-131): T1 sequence (looked up)
# T3: canine IL-4 (cIL-4) (Canis lupus familiaris, UniProt O77762)
# T3 sequence (O77762 25-132): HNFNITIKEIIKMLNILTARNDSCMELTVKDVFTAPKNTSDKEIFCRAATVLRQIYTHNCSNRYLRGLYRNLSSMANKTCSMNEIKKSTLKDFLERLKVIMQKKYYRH
# B1: cIL-13Rα1-cIgGB-Fc (Fc fusion)
# chain: GGVAAPTETQPPVTNLSVSVENLCTVIWTWDPPEGASPNCTLRYFSHFDNKQDKKIAPETHRSKEVPLNERICLQVGSQCSTNESDNPSILVEKCTPPPEGDPESAVTELQCVWHNLSYMKCTWLPGRNTSPDTNYTLYYWHSSLGKILQCEDIYREGQHIGCSFALTNLKDSSFEQHSVQIVVKDNAGKIRPSFNIVPLTSHVKPDPPHIKRLFFQNGNLYVQWKNPQNFYSRCLSYQVEVNNSQTETNDIFYVEEAKCQNSEFEGNLEGTICFMVPGVLPDTLNTVRIRVRTNKLCYEDDKLWSNWSQAMSIGENTDPTPKRENGRVPRPPDCPKCPAPEMLGGPSVFIFPPKPKDTLLIARTPEVTCVVVDLDPEDPEVQISWFVDGKQMQTAKTQPREEQFNGTYRVVSVLPIGHQDWLKGKQFTCKVNNKALPSPIERTISKARGQAHQPSVYVLPPSREELSKNTVSLTCLIKDFFPPDIDVEWQSNGQQEPESKYRTTPPQLDEDGSYFLYSKLSVDKSRWQRGDTFICAVMHEALHNHYTQESLSHSPGK
# notes: Homodimer; also called cIL-13Rα1-cFc; cIL13Rα1-cFc
# B2: cIL-13Rα1-cIgGB-Fc-YTE (Fc fusion)
# chain: B1 chain with L361Y, A363T, T365E
# notes: Homodimer; also called cIL-13Rα1-cFc-YTE
# B3: cIL-13Rα2-cIgGB-Fc (Fc fusion)
# chain: SMLSNAEIKVNPPQDFEIVDPGYLGYLSLQWQPPLFPDNFKECTIEYELKYRNIDSENWKTIITKNLHYKDGFDLNKGIEAKINTLLPAQCTNGSEVRSSWAETTYWTSPQGNRETKIQDMDCVYYNWQYLVCSWKPGMGVHFDTNYQLFYWYEGLDHSAECTDYIKVNGKNMGCRFPYLESSDYKDFYICVNGSSESQPIRPSYFIFQLQNIVKPMPPDYLSLTVKNSEEINLKWNMPKGPIPAKCFIYEIEFTEDGTTWVTTTVENEIQITRTSNESQKLCFLVRSKVNIYCSDDGIWSEWSDEQCWKGDIWKETPKRENGRVPRPPDCPKCPAPEMLGGPSVFIFPPKPKDTLLIARTPEVTCVVVDLDPEDPEVQISWFVDGKQMQTAKTQPREEQFNGTYRVVSVLPIGHQDWLKGKQFTCKVNNKALPSPIERTISKARGQAHQPSVYVLPPSREELSKNTVSLTCLIKDFFPPDIDVEWQSNGQQEPESKYRTTPPQLDEDGSYFLYSKLSVDKSRWQRGDTFICAVMHEALHNHYTQESLSHSPGK
# notes: Homodimer; also called cIL-13Rα2-cFc; cIL13Rα2-cFc
# B4: cIL4Rα-IL13Rα2_ZW1-cFc: bispecific heterodimer of cIL-4Rα-cIgGB-Fc-ZW-A (SEQ ID NO: 18) and cIL-13Rα2-cIgGB-Fc-ZW-B (SEQ ID NO: 20) (protein)
# chain 1: VKVLHEPSCFSDYISTSVCQWKMDHPTNCSAELRLSYQLDFMGSENHTCVPENREDSVCVCSMPIDDAVEADVYQLDLWAGQQLLWSGSFQPSKHVKPRTPGNLTVHPNISHTWLLMWTNPYPTENHLHSELTYMVNVSNDNDPEDFKVYNVTYMGPTLRLAASTLKSGASYSARVRAWAQTYNSTWSDWSPSTTWLNYYEPWEQHLPPKRENGRVPRPPDCPKCPAPEMLGGPSVFIFPPKPKDTLLIARTPEVTCVVVDLDPEDPEVQISWFVDGKQMQTAKTQPREEQFNGTYRVVSVLPIGHQDWLKGKQFTCKVNNKALPSPIERTISKARGQAHQPSVYVYPPSREELSKNTVSLTCLIKDFFPPDIDVEWQSNGQQEPESKYRTTPPQLDEDGSYALVSKLSVDKSRWQRGDTFICAVMHEALHNHYTQESLSHSPGK
# chain 2: B3 chain with T471L, R499L, T501W
# modifications: heterodimer
# Key:
# [1] = biological target: T1, canine IL-13; assay: cell-based or functional assay
# [2] = biological target: T1, canine IL-13; assay: cell-based or functional assay; remark: listed apart in the source
# [3] = biological target: T1, canine IL-13; assay: BLI (Octet HTX), biotin-cIL-13 on SA biosensors, fusion protein in solution, 1:1 fit
# Protocol: (§1) The binding constants for the cFc fusion proteins provided in Tables 3 and 4 below, were determined using OCTET® HTX. All kinetics measurements were performed by OCTET® HTX using SA® biosensors and DATA ACQUISITION® 12.0 software. 10 μg/mL of biotin-labeled antigen, either canine IL-4 (cIL-4) or canine IL-13 (cIL-13) were loaded onto the SAR biosensors for 120 seconds. Next, the biosensors were placed into 1×pH 7.0 TBS/Casein buffer for 60 seconds for the blocking phase. For the association phase, antigen loaded biosensors were placed into 2-fold serial dilutions from 1 μM down to 15.6 nM of the wild-type, the bispecific, or the FcRn-mutant receptor Fc-fusions that recognized the cIL-4 or cIL-13 antigen in 1×pH 7.0 TBS/Casein buffer for 30 seconds. The last well was buffer alone and that sensor was used for reference sensor subtraction. Finally, the biosensors were placed into 1×pH 7.0 TBS/Casein buffer for 120 seconds for the dissociation phase. The results were then analyzed using Data Analysis 12.0 software and the curves were fitted using a 1:1 binding model.
# [4] = biological target: T1, canine IL-13; assay: BLI (Octet); summary table, rounded from Table 4
# [5] = biological target: T1, canine IL-13; assay: BLI (Octet)
# Protocol: as §1
# [6] = biological target: T2, canine IL-13 (cIL-13); assay: Binding kinetics of cFc fusion proteins to canine IL-13 (OCTET HTX); conditions: Table 4, cIL-13
# Protocol: as §1
# [7] = biological target: T3, canine IL-4 (cIL-4); assay: Binding kinetics of cFc fusion proteins to canine IL-4 (OCTET HTX); conditions: approximate values
# Protocol: as §1
# [8] = test system: cIL-13 mediated STAT6 phosphorylation; assay: Inhibition of cIL-13 mediated STAT6 phosphorylation in DH82 cells (AlphaLISA p-STAT6); type: cell-based, canine
# Protocol: The ability of the cFc fusion proteins to block the signaling mediated by IL-4 and IL-13, as measured by inhibition of STAT-6 phosphorylation in DH82 cells, were determined as follows:
# • 1. Actively growing DH82 cells: Merck Animal Health Lot: 628-011, 24Oct14 • 2. HBSS, 1×: Corning, Catalog 21-022-CM • 3. AlphaLISA p-STAT6 (Tyr641) Assay Kit: Perkin Elmer, Catalog ALSU-PST6-A10K • 4. Recombinant canine IL-4: R&D Systems, Catalog: 752-CL/CF • 5a. cFc fusion protein samples for IL-4 studies • (i) cIL4Rα-cFc • (ii) cIL4Rα-IL13Rα1 ZW1-cFc • (iii) cIL4Rα-IL13Rα2 ZW1-cFc • 5b. cFc fusion protein samples for IL-13 studies: • (i) CIL13Rα1-cFc • (ii) cIL13Rα2-cFc • (iii) cIL4R-IL13Rα1 ZW1-cFc • (iv) cIL4R-IL13Rα2 ZW1-cFc • 6. Perkin Elmer® Envision
# • 1. Tissue culture plates were seeded with […] DH82 cells per well (40 μL with the density of 2.5×10^5 cells/mL) and incubated at 37° C. for 2 hours. • 2. The cFc fusion proteins were pre-diluted to 2000 nM (500 nM final concentration in the well) and then 3-fold serially diluted in Hank's Balanced Salt Solution (HBSS). The proteins were added by transferring 20 μL/well to the respective locations on the tissue culture plates containing DH82 cells. • 3. (a) Canine IL-4 was diluted to 10 ng/ml in HBSS (2.5 ng/ml in the well) and 20 μL was added to each well of the plates. The plates were incubated for 15 min at 37° C.; or alternatively • (b) Canine IL-13 was diluted to 20 ng/ml in HBSS (5 ng/ml in the well) and 20 μL was added to each well of the plates. The plates were incubated for 15 min at 37° C. • 4. The plates were removed from the incubator and 20 μL of 4× Lysis buffer from the AlphaLISA® p-STAT-6 Assay Kit was added to each well of the plate. The plate was agitated on a plate shaker with 350 rpm for 10 minutes at room temperature. • 5. The Acceptor Mix was prepared from the AlphaLISA® p-STAT6 Assay Kit and 15 μL per well was added to 30 μL of the cell lysate in 96-well ½ Area Plates. The plates were sealed, agitated for 2 minutes at 350 rpm, and then incubated for 1 hour at room temperature. • 6. The Donor Mix was prepared from the AlphaLISA® p-STAT6 Assay kit under subdued laboratory lighting and 15 μL per well was added to each plate. The plates were sealed, covered with foil, agitated for 2 minutes at 350 rpm, and then incubated for 1 hour at room temperature. • 7. The plates were read using the AlphaScreen settings on the Perkin Elmer® En Vison.
molecule,measurement,setting,value
B1,"IL-13 (IC50), summary table",[1],20 nM
same,IL-13 IC50 (inhibition of cIL-13 mediated STAT6 phosphorylation in DH82 cells),[2],18.4 nM
same,Kd,[3],5.37 nM
same,koff,[3],0.000312 s⁻¹
same,kon,[3],58000 M⁻¹ s⁻¹
same,Kd,[4],5 nM
B2,fold decrease in affinity against unmodified cIL-13Rα1-cFc,[5],~4 fold
same,Kd,[3],16.5 nM
same,koff,[3],0.0011 s⁻¹
same,kon,[3],66500 M⁻¹ s⁻¹
B3,"IL-13 (IC50), summary table",[1],0.2 nM
same,IL-13 IC50 (inhibition of cIL-13 mediated STAT6 phosphorylation in DH82 cells),[2],0.165 nM
same,Kd,[3],0.000744 nM
same,koff,[3],7.45e-07 s⁻¹
same,kon,[3],1e+06 M⁻¹ s⁻¹
same,Kd,[4],0.0007 nM
B4,ka,[6]; association rate constant,32600 M⁻¹ s⁻¹
same,kdis,[6]; dissociation rate constant,0.000135 s⁻¹
same,binding constant (KD) with cIL-4,[7],undetectable
same,"IC50 for cIL-13 mediated STAT6 phosphorylation, fold higher than for cIL-13Rα2-cFc",[8],about 200 fold
same,concentration inhibiting 50% of the cIL-13 mediated STAT6 phosphorylation (in words),[8]; DH82 cells,well above nanomolar concentrations
